Results reported in patent publication US20220402995A1 (TOSOH, published 2022).
Numbering of substitutions follows the chain as printed.

B1: AAV-binding protein No. 58 (AVR2 + Ile319Phe) (receptor)
chain: MGSAGESVQFTLPKNEVQLNAYVLQEPPKGETCTYDWQLITHPRDYSGEMEGKHSQILKLSKLTPGLYEFKVIVEGQNAHSEGYVNVTVKPEPRKNRPPIAIVSPQFQEISLPTTSTVIDGSQSTDDDKIVQYHWEELKGPLREEKISEDTAILKLSKLVPGNYTFSLTVVDSDGATNSTTANLTVNKAVDHHHHHH
B2: AVR7b (AAV-binding protein No. 91; AVR5e + Val317Asp, Lys371Asn) (receptor)
chain: B1 chain with V8D, F10I, K62N, K90E, S167R, N178D
B3: AAV-binding protein No. 70 (AVR2 + Val383Ala) (receptor)
chain: B1 chain with F10I, V74A
B4: AAV-binding protein No. 140 (AVR8g + Leu372Pro, Val396Ala) (receptor)
chain: B1 chain with V8D, F10I, K53E, K62N, L63P, V87A, K90E, S167R, N178D
B5: AAV-binding protein No. 86 (AVR5e + Lys371Glu) (receptor)
chain: B1 chain with F10I, K62E, K90E, S167R, N178D
B6: AAV-binding protein No. 63 (AVR2 + Tyr331His) (receptor)
chain: B1 chain with F10I, Y22H
B7: AAV-binding protein No. 150 (AVR8g + Val396Ala, Gln441Arg, Lys448Glu) (receptor)
chain: B1 chain with V8D, F10I, K53E, K62N, V87A, K90E, Q132R, K139E, S167R, N178D
B8: AAV-binding protein No. 145 (AVR8g + Trp346Cys, Arg353Cys, His389Arg) (receptor)
chain: B1 chain with V8D, F10I, W37C, R44C, K53E, K62N, H80R, K90E, S167R, N178D
B9: AAV-binding protein No. 97 (AVR5e + Val332Ala, Lys371Glu) (receptor)
chain: B1 chain with F10I, V23A, K62E, K90E, S167R, N178D
B10: AAV-binding protein No. 102 (AVR5e + Leu328Pro, Lys362Asn, Thr397Ser, Arg406His) (receptor)
chain: B1 chain with F10I, L19P, K53N, T88S, K90E, R97H, S167R, N178D
B11: AAV-binding protein No. 64 (AVR2 + Val332Ala) (receptor)
chain: B1 chain with F10I, V23A
B12: AAV-binding protein No. 146 (AVR8g + Leu372Gln, Leu376Pro, Val394Asp) (receptor)
chain: B1 chain with V8D, F10I, K53E, K62N, L63Q, L67P, V85D, K90E, S167R, N178D
B13: AAV-binding protein No. 101 (AVR5e + Val326Glu, Asn329His, Glu378Val) (receptor)
chain: B1 chain with F10I, V17E, N20H, E69V, K90E, S167R, N178D
B14: AAV-binding protein No. 89 (AVR5e + Glu378Gly) (receptor)
chain: B1 chain with F10I, E69G, K90E, S167R, N178D
B15: AAV-binding protein No. 78 (AVR2 + Leu328Pro, Ile366Phe) (receptor)
chain: B1 chain with F10I, L19P, I57F
B16: AAV-binding protein No. 74 (AVR2 + Ser476Gly) (receptor)
chain: B1 chain with F10I, S167G
B17: AAV-binding protein No. 95 (AVR5e + Val326Ala, Lys362Glu) (receptor)
chain: B1 chain with F10I, V17A, K53E, K90E, S167R, N178D
B18: AAV-binding protein No. 147 (AVR8g + Phe379Cys, Gln432Leu, Ser488Leu) (receptor)
chain: B1 chain with V8D, F10I, K53E, K62N, F70C, K90E, Q123L, S167R, N178D, S179L
B19: AAV-binding protein No. 90 (AVR5e + Gly392Cys) (receptor)
chain: B1 chain with F10I, G83C, K90E, S167R, N178D
B20: AAV-binding protein No. 80 (AVR2 + Gln365Arg, Gly392Cys) (receptor)
chain: B1 chain with F10I, Q56R, G83C
B21: AAV-binding protein No. 76 (AVR2 + Asn492Asp) (receptor)
chain: B1 chain with F10I, N183D
B22: AAV-binding protein No. 96 (AVR5e + Val326Glu, Phe379Ser) (receptor)
chain: B1 chain with F10I, V17E, F70S, K90E, S167R, N178D
B23: AAV-binding protein No. 92 (AVR5e + Thr320Ala, Val381Asp) (receptor)
chain: B1 chain with F10I, T11A, V72D, K90E, S167R, N178D
B24: AAV-binding protein No. 142 (AVR8g + Glu378Gly, Arg403His) (receptor)
chain: B1 chain with V8D, F10I, K53E, K62N, E69G, K90E, R94H, S167R, N178D
B25: AAV-binding protein No. 61 (AVR2 + Leu328Gln) (receptor)
chain: B1 chain with F10I, L19Q
B26: AAV-binding protein No. 141 (AVR8g + Leu376Pro, Gly(Ser)390Gly) (receptor)
chain: B1 chain with V8D, F10I, K53E, K62N, L67P, S81G, K90E, S167R, N178D
notes: Gly(Ser)390Gly read as Ser390 of AVR8g back to the wild-type Gly, so Gly390Ser is not applied
B27: AAV-binding protein No. 139 (AVR8g + Leu369Gln, Pro374Leu) (receptor)
chain: B1 chain with V8D, F10I, K53E, L60Q, K62N, P65L, K90E, S167R, N178D
B28: AAV-binding protein No. 81 (AVR2 + Phe379Ser, Ser476Gly) (receptor)
chain: B1 chain with F10I, F70S, S167G
B29: AAV-binding protein No. 72 (AVR2 + Val394Ala) (receptor)
chain: B1 chain with F10I, V85A
B30: AAV-binding protein No. 62 (AVR2 + Leu328Pro) (receptor)
chain: B1 chain with F10I, L19P
B31: AAV-binding protein No. 71 (AVR2 + His389Asp) (receptor)
chain: B1 chain with F10I, H80D
B32: AAV-binding protein No. 100 (AVR5e + Asn324Asp, Lys362Glu, Val499Glu) (receptor)
chain: B1 chain with F10I, N15D, K53E, K90E, S167R, N178D, V190E
B33: AVR10 (AAV-binding protein No. 143; AVR8g + Val381Ala, Ile382Val) (receptor)
chain: B1 chain with V8D, F10I, K53E, K62N, V72A, I73V, K90E, S167R, N178D
B34: AAV-binding protein No. 85 (AVR5e + Val317Asp) (receptor)
chain: B1 chain with V8D, F10I, K90E, S167R, N178D
B35: AAV-binding protein No. 98 (AVR5e + Leu376Pro, Asn492Asp) (receptor)
chain: B1 chain with F10I, L67P, K90E, S167R, N178D, N183D
B36: AAV-binding protein No. 84 (AVR2 + Pro336Gln, Gln386Arg, Asn487Asp) (receptor)
chain: B1 chain with F10I, P27Q, Q77R, N178D
B37: AAV-binding protein No. 94 (AVR5e + Val326Glu, Asn329His) (receptor)
chain: B1 chain with F10I, V17E, N20H, K90E, S167R, N178D
B38: AAV-binding protein No. 82 (AVR2 + Ser476Arg, Thr490Ser) (receptor)
chain: B1 chain with F10I, S167R, T181S
B39: AAV-binding protein No. 69 (AVR2 + Thr350Ser) (receptor)
chain: B1 chain with F10I, T41S
B40: AAV-binding protein No. 59 (AVR2 + Ile319Asn) (receptor)
chain: B1 chain with F10N
B41: AAV-binding protein No. 149 (AVR8g + Val394Ile, Asn395Ser, Thr426Ala) (receptor)
chain: B1 chain with V8D, F10I, K53E, K62N, V85I, N86S, K90E, T117A, S167R, N178D
B42: AAV-binding protein No. 144 (AVR8g + Val383Ala, Gln415Arg) (receptor)
chain: B1 chain with V8D, F10I, K53E, K62N, V74A, K90E, Q106R, S167R, N178D
B43: AAV-binding protein No. 79 (AVR2 + Lys338Asn, Asn487Asp) (receptor)
chain: B1 chain with F10I, K29N, N178D
B44: AAV-binding protein No. 67 (AVR2 + Pro337Gln) (receptor)
chain: B1 chain with F10I, P28Q
B45: AAV-binding protein No. 60 (AVR2 + Lys323Glu) (receptor)
chain: B1 chain with F10I, K14E
B46: AAV-binding protein No. 65 (AVR2 + Val332Glu) (receptor)
chain: B1 chain with F10I, V23E
B47: AAV-binding protein No. 68 (AVR2 + Tyr(Cys)342Arg) (receptor)
chain: B1 chain with F10I, C33R
notes: Cys342 of AVR2 replaced by Arg
B48: AAV-binding protein No. 99 (AVR5e + Gln318Pro, Phe379Tyr, Glu401Val) (receptor)
chain: B1 chain with Q9P, F10I, F70Y, K90E, E92V, S167R, N178D
B49: AAV-binding protein No. 83 (AVR2 + Ile319Ser, Thr320Ile, Lys399Glu) (receptor)
chain: B1 chain with F10S, T11I, K90E
B50: AAV-binding protein No. 77 (AVR2 + Leu321Pro, Ile409Val) (receptor)
chain: B1 chain with F10I, L12P, I100V
B51: AAV-binding protein No. 73 (AVR2 + Val396Ala) (receptor)
chain: B1 chain with F10I, V87A
B52: AAV-binding protein No. 87 (AVR5e + Lys371Asn) (receptor)
chain: B1 chain with F10I, K62N, K90E, S167R, N178D
B53: AAV-binding protein No. 66 (AVR2 + Leu333Pro) (receptor)
chain: B1 chain with F10I, L24P
B54: AAV-binding protein No. 88 (AVR5e + Leu376Pro) (receptor)
chain: B1 chain with F10I, L67P, K90E, S167R, N178D
B55: AAV-binding protein No. 148 (AVR8g + Glu384Val, Gln432Arg, Ile456Val) (receptor)
chain: B1 chain with V8D, F10I, K53E, K62N, E75V, K90E, Q123R, I147V, S167R, N178D

How the values were obtained:
[1] = target: T1, VLP2 (virus-like particles of AAV2) (AAV2, UniProt P03135 1-735; P03135 1-598; P03135 1-533); assay: ELISA on VLP2; binding after pH 3.0 51.1°C 15 min / untreated;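 note: binding of the heat-treated AAV-binding protein to VLP2, expressed as a percentage of the binding of the same protein without heating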
T1 construct: Empty AAV2 capsid; background says about 60 protein molecules, VP1:VP2:VP3 = 1:1:10; Immobilised on the ELISA plate
Method: (§1) The residual activity was calculated by dividing the binding activity of AAV-binding protein to VLP2 when the heat treatment was performed by the binding activity of AAV-binding protein to VLP2 when the heat treatment was not performed.

[2] = target: T1, VLP2 (virus-like particles of AAV2); assay: ELISA on VLP2; binding after pH 3.0 61.0°C 15 min / untreated
Method: (3) The culture solution of (2) was centrifuged, and the obtained culture supernatant was diluted 32-fold with ultrapure water. The diluted culture solution in an amount of 60 μL and 60 μL of 0.1 M glycine hydrochloric acid buffer (pH 3.0) were mixed, and heat treatment and acid treatment were performed at 61.0° C. for 15 minutes.
as §1

[3] = target: T1, VLP2 (virus-like particles of AAV2); assay: ELISA on VLP2; binding after pH 10.0 41.2°C 15 min / untreated

T1 sequence (P03135 whole entry, chain 1 of 3): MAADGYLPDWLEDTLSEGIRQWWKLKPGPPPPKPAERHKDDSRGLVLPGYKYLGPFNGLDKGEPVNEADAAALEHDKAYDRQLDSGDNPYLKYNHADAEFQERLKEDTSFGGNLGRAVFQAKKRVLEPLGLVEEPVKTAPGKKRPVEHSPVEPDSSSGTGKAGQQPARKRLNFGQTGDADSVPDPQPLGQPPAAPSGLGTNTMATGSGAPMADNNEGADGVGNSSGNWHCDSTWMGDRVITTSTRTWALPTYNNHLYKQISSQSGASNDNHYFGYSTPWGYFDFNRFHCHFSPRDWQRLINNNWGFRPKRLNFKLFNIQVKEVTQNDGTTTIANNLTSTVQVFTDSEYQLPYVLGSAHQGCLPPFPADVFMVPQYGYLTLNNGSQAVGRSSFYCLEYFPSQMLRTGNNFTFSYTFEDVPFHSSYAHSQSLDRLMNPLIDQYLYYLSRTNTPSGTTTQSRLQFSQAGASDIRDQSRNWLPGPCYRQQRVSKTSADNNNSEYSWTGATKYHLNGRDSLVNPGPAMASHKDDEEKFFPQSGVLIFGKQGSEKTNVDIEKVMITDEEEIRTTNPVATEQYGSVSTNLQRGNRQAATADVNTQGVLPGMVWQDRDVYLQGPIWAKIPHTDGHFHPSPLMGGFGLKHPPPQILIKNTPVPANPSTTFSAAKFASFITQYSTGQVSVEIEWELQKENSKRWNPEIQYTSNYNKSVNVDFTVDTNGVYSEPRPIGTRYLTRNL
T1 sequence (P03135 139-735, tags left off, chain 2 of 3): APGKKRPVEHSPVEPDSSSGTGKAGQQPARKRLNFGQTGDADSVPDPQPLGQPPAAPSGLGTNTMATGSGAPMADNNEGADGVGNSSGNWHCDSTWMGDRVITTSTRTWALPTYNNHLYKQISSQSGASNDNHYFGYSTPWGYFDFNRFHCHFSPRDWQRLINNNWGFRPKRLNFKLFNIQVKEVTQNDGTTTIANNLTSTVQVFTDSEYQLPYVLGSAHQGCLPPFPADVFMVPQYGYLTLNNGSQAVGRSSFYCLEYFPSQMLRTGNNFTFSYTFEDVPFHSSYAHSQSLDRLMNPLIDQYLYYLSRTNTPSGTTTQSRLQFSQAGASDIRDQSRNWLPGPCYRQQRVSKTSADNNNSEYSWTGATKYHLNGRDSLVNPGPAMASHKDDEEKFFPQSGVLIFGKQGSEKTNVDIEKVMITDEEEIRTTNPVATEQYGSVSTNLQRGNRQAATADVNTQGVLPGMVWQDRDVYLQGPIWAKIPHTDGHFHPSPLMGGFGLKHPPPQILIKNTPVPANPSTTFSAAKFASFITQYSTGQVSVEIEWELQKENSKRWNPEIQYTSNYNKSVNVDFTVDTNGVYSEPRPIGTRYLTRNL
T1 sequence (P03135 203-735, chain 3 of 3): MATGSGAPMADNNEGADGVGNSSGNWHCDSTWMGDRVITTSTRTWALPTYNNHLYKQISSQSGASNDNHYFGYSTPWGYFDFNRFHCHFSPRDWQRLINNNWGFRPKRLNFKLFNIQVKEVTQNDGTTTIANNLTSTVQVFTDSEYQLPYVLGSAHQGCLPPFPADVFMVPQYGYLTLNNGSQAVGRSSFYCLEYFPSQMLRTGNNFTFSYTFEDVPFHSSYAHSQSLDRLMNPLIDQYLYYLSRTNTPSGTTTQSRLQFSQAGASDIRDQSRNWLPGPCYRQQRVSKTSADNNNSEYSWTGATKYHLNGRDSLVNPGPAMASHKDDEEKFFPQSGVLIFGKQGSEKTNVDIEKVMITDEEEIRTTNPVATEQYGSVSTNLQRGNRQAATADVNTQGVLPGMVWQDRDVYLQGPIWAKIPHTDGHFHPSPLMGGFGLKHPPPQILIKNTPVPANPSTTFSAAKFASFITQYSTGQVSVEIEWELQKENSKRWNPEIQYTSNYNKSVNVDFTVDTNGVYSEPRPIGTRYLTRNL

Binder	Residual activity [%] [1]	Residual activity [%] [2]	further results
B1	73.9%		
B2		55.7%	
B3	32.8%		
B4			Residual activity [%] [3]: 92.8%
B5		41.6%	
B6	43.1%		
B7			Residual activity [%] [3]: 49.7%
B8			Residual activity [%] [3]: 63.5%
B9		49.6%	
B10		41.1%	
B11	41.4%		
B12			Residual activity [%] [3]: 81.4%
B13		48.5%	
B14		46.1%	
B15	55.9%		
B16	63.4%		
B17		45.3%	
B18			Residual activity [%] [3]: 79.7%
B19		53.3%	
B20	49.9%		
B21	36.4%		
B22		60.9%	
B23		52.4%	
B24			Residual activity [%] [3]: 76.6%
B25	43.5%		
B26			Residual activity [%] [3]: 85%
B27			Residual activity [%] [3]: 85.2%
B28	66.3%		

Binder	Residual activity [%] [1]	Residual activity [%] [2]	further results
B29	32%		
B30	38.8%		
B31	71.9%		
B32		50.1%	
B33			Residual activity [%] [3]: 90.3%
B34		50.2%	
B35		47.6%	
B36	48.4%		
B37		44.9%	
B38	70.6%		
B39	49.9%		
B40	26.1%		
B41			Residual activity [%] [3]: 70.5%
B42			Residual activity [%] [3]: 65.7%
B43	73.1%		
B44	45.6%		
B45	80.2%		
B46	29.4%		
B47	70.4%		
B48		54%	
B49	70.2%		
B50	34.3%		
B51	48.9%		
B52		56.5%	
B53	31.8%		
B54		41.7%	
B55			Residual activity [%] [3]: 37.4%
